Experimental findings from article PMC12102759 (2025) are described below.

The target of test [1] is NCOA2 wild-type peptide. The test is described as follows: FP.
In test [2] the target is PRDM14 wild-type peptide. The test is described as follows: FP.

B1: SARS‐CoV‐2 NSP3 UBl1 domain (819–925), tag cleaved, for FP (domain or fragment)
chain: APTKVTFGDDTVIEVQGYKSVNITFELDERIDKVLNEKCSAYTVELGTEVNEFACVVADAVIKTLQPVSELLTPLGIDLDEWSMATYYLFDESGEFKLASHMYCSFY
One may read the Kd as the concentration at which binding is half-saturated. Lower therefore signals a tighter complex. With B1, the affinity in test [1], expressed as Kd, was 39 µM.

B2: SARS‐CoV‐2 NSP3 SUD‐M domain (1356–1493), tag cleaved, for FP (domain or fragment)
chain: LPSIISNEKQEILGTVSWNLREMLAHAEETRKLMPVCVETKAIVSTIQRKYKGIKIQEGVVDYGARFYFYTSKTTVASLINTLNDLNETLVTMPLGYVTHGLNLEEAARYMRSLKVPATVSVSSPDAVTAYNGYLTSS
In the case of B2, binding in test [2] was put at a Kd of 74 µM.
